Series [1] concerns the target PP7-PP7 single-chain coat protein dimer particle (PP7 virus (Leviviridae)) (UniProt P03630). Description: cryo-EM structure.
For series [2], the target named is PP7-ZZ particle (ZZ-domains fused to the C-terminus of the PP7 CP) (PP7 virus (Leviviridae)). Kind of series: SEC + other: dynamic light scattering + other: TEM.
In series [3] the target is ZZ-PP7 particle (ZZ-domains added to the N-terminus of the PP7 CP) (PP7 virus (Leviviridae)). Description: cryo-EM structure.
Series [4] deals with the molecule itself. Description: SEC + other: dynamic light scattering + other: TEM.

In general, stoichiometry N refers to the number of molecules, sites or subunits per partner or assembly. With “PP7-PP7 single-chain coat protein dimer particle (from UniProt P03630 1-128; P03630 1-128)”, in series [1], the stoichiometry N stood at 120 copies.

For “PP7-ZZ particle (ZZ-domains fused to the C-terminus of the PP7 CP)”, in series [2], the stoichiometry N is 180 per capsid.

“ZZ-PP7 particle (ZZ-domains added to the N-terminus of the PP7 CP)” had a stoichiometry N in series [3] of 180 per capsid.

B1: wild-type PP7 virus-like particle (PP7 coat protein) (natural protein)
chain: MSKTIVLSVGEATRTLTEIQSTADRQIFEEKVGPLVGRLRLTASLRQNGAKTAYRVNLKLDQADVVDCSTSVCGELPKVRYTQVWSHDVTIVANSTEASRKSLYDLTKSLVATSQVEDLVVNLVPLGR
For the molecule B1, in series [4], the binding result is “binds”.

Values taken from article PMC6991139 (ACS nano, 2019).
